This series is described as follows: yeast display, Sf9 membrane polyspecificity reagent, FACS + sequencing; frameworks hold sequencing errors. The method in brief: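 Galactose-induced (36–48 hours) yeast carrying a synthetic nanobody display library were exposed to 10% biotinylated, detergent-solubilized Sf9 membrane reagent at 4 °C for 1 hour. FACS followed streptavidin microbead enrichment, using low and high (top ~1%) gates for expression (anti-HA) and reagent binding (streptavidin). Colony PCR, MiSeq 2 × 250 sequencing and CDR-length filtering followed. Labels for polyreactivity reflect the gate of origin.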
As for “QVQLVESGGGLVQAGGSLRLSCAASGSTFVNYGMGWYRQAPGKERELVAAITQSGGSTYYADSVKGRFTISRDNAKNTVYLQMNSLKPEDTAVYYCAAEVVRQWHGIGYDYWGQGTQVTVSS”, the “polyreactivity (PSR sort gate)” value is reported as “low polyreactivity”.
The entry for “QVQLVESGGGLVQAGGSLRLSCAASGSTFVPNAMGWYRQAPGKERELVAAISSVGSTNYADSVKGRFTISRDNAKNTVYLQLNSLKPEDTAVYYCAVRYPWRYFKYGYWGQGTQVTVSS” is “low polyreactivity”; for “QVQLVESGGGLVQAGGSLRLSCAASGSTFVPNAMGWYRQAPGKERELVAAISSVGSTNYADSVKGRFTISRDNAKNTVYLQMNSLKPEDTAVYYCAVRYPWRYFKYGYWGQGSQVTVSS” it is “low polyreactivity”.
On to “QVQLVESGGGLVQAGGSLRLSCAASGSTFVPNAMGWYRQAPGKERELVADITSGGITNYADSVKGRFTISRDNAKNTVYLQMISLNPEDTGVYYCAVLYYILAPGYDYWGQGTLVTVSS”, for which the “polyreactivity (PSR sort gate)” value is on record as “low polyreactivity”.
The entry for “QVQLVESGGGLVQAGGSLRLSCAASGSTFVPYAIGWYRQAPGTERELVAAISSRGGRTSYADSVKGRFTISRDNAKNTVYLQMKRLKPEDTAVYYCIALYPGRLTDYSRSKMEYWGQGTQVTVSS” is “high polyreactivity”; for “QVQLVESGGGLVQAGGSLRLSCAASGSTFVPYAMGWYRQAPGKERELVAAITDSGGSTSYADSVKGRFTISRDKAKNSVYLQMNSLKPEDTAVYYCAAQTRAIVQKYPGDDYWGQGTQVTVSS” it is “low polyreactivity”.
On to “QVQLVESGGGLVQAGGSLRLSCAASGSTFVPYAMGWYRQAPGKERELVAAITTSGGNTYYADSVKGRFTISRDNAKNTVYLQMNSLKPEDTAVYYCAADTYRRFDYWGEGTQVTVSS”, for which the “polyreactivity (PSR sort gate)” value is reported as “low polyreactivity”.
The same measure for “QVQLVESGGGLVQAGGSLRLSCAASGSTFVPYAMGWYRQAPGKERELVASISWRGGSTSYADSVKGRFTISRDNAKNTVYLQMNSLKPEDTAVYYCAARPRYRYKQDYYYWGQGTQVTVSS”: “high polyreactivity”.
With “QVQLVESGGGLVQAGGSLRLSCAASGSTFVPYVMGWYRQAPGKERELVAAISKSGTSTYYADSVKGRFTISRDNAKNTVYLQMNCLKPEDTAVYYCAAVARRQVPYDYWGQGTQVTVSS”, the “polyreactivity (PSR sort gate)” value is on record as “high polyreactivity”.
Take “QVQLVESGGGLVQAGGSLRLSCAASGSTFVRNAMGWYRQAPGKERELVAGITFGGGSTYYADSVKGRFTISRDIAKNTVYLQMNSLKPEDTAVYYCAADLSYRGATRGDYYWGQGTQVTVSS”: the “polyreactivity (PSR sort gate)” value is “low polyreactivity”.
Regarding “QVQLVESGGGLVQAGGSLRLSCAASGSTFVRYAMGGYRQAPGKERELVAAISWSGASTYYADSVKGRFTISRDNAKNTVYLQMNSLKPEDTAVYYCAARSRWYDAAGYPKYYYWGQGTQVTVSS”, the “polyreactivity (PSR sort gate)” value is “high polyreactivity”.
The entry for “QVQLVESGGGLVQAGGSLRLSCAASGSTFVRYAMGWYRQAPGKERELVAAISSNGGSTYYADSVKGRFTISRDNAKNSVYLQMNSLKPEDTAVYYCAKSRVRKYYWGQGTQVTVSS” is “high polyreactivity”.
The entry for “QVQLVESGGGLVQAGGSLRLSCAASGSTFVRYSMGWYRQAPGKERDLVAAITSSGGSTYYADSVKGRFTISRDNAKNSVYFQMNSLKPEDTAVYDFAAARYPYRYIYNYWGQGTQVTVSS” is “high polyreactivity”; for “QVQLVESGGGLVQAGGSLRLSCAASGSTFVRYVMGWYRQAPGKERELVAAISRRGGSTYYADSVKGRFTISRDNAKNTVYLQMNSLKPEDTAVYYCARTVGYRTLLESDSWGQGTQVTVSS” it is “high polyreactivity”; for “QVQLVESGGGLVQAGGSLRLSCAASGSTFVRYVMGWYRQAPGKQRELVAAISRRGGSTYYADSVEGRFTISRDNAKNTVYLQMNSLKPEDTAVYYCAARGTSRKYYYWGQGTQVTVSS” it is “high polyreactivity”.
As to “QVQLVESGGGLVQAGGSLRLSCAASGSTFVRYVMGWYRQATGKERELVAAISRRGGSTYYADSVKGRFTISRDNAKNTVYLQMNSLKPEDTAVYYCARTVGYRTLLESDSWGQGTQVTVSS”, the “polyreactivity (PSR sort gate)” value was “high polyreactivity”.
The entry for “QVQLVESGGGLVQAGGSLRLSCAASGSTFVSSALGWSSQAPGKARELVARIRRSGGSTYYADSVKGRFTISRDNAKNTVYLQMNSLKPEDTAVYDCAAGYSRGQYRYNYWGQGTQVTVSS” is “high polyreactivity”; for “QVQLVESGGGLVQAGGSLRLSCAASGSTFVSYAMGWYRQAPGKERELVAAISSGGGSTYYADSVKGRFTISRDNAKNTVYLQMNSLKPEDTAVYYCAARGYAYRAQYGYWGQGTQVTVSS” it is “high polyreactivity”; for “QVQLVESGGGLVQAGGSLRLSCAASGSTFVSYAMGWYRQEPGKERELVATISQSGGSTSYADSVKGRFTISRDNAKNTVYFQMNCRKPEDTAVYNCAARLRAPHRRSYNYWGQGTQVTVSS” it is “high polyreactivity”.
The same measure for “QVQLVESGGGLVQAGGSLRLSCAASGSTFVTNDMGWYRQAPGKERDLVADISWSGGDTYYADSVKGRFTISRDNAKNTVYLQMNSLKPEDTAVYYCAARPDQGLAYSPLPWYNYWGQGTQVTVSS”: “low polyreactivity”; for “QVQLVESGGGLVQAGGSLRLSCAASGSTFVTNDMGWYRQAPGKESELVAAISSGTSTNYADSVKGRFTISRDNAKNTVYLQMNSLKPEDTAVYYCAADSLKRYDYWGQGTQVTVSS”: “low polyreactivity”; for “QVQLVESGGGLVQAGGSLRLSCAASGSTFVTYAKGWYRQAPGKERELVAAITSGGSTNYADSVKGRFTISRDNAKNTVYLQMNCLKPEDTEVYYCAARYYGAYGKQPRARYGYWGQGTQVTVSS”: “high polyreactivity”.
Take “QVQLVESGGGLVQAGGSLRLSCAASGSTFVVNAMGWYRQAPGKEREFVAAITWNGGSTYADSVKGRFTISRDNAKNTVYLQMNSLKPEDTAVYYCSADLSYWDDFDYWGQGTQVTVSS”: the “polyreactivity (PSR sort gate)” value is on record as “low polyreactivity”.
The entry for “QVQLVESGGGLVQAGGSLRLSCAASGSTFVVNAMGWYRQAPGKERELVAAITLSTGSTYYADSVKGRFTISRDNAKNTVYLQMNSLKPEDTAVYYCNTEIYVDIISDYGYWGQGTEVTVSS” is “low polyreactivity”.
The entry for “QVQLVESGGGLVQAGGSLRLSCAASGSTFVVNAMGWYRQAPGKERELVAAITQSGGSTFYADSVKGRFTISRDNAKNTVYLQMNSLKPEETAVYYWGHGTQVTVSS” is “low polyreactivity”; for “QVQLVESGGGLVQAGGSLRLSCAASGSTFVVNTMGWYRQAPGKERELVAAITRRTTSTYYADSVKGRFTISRDNAKNTVYLQMNSLKPEDTAVYYCAAERRHYSTTYYYWGQGTQVTVSS” it is “high polyreactivity”; for “QVQLVESGGGLVQAGGSLRLSCAASGSTFVWYAMGWYRQAPGKEREFVAAITSDGGSTYYADSVKGRFTISRDNAKNTVYLQLNSLKPEDTAVYYCAADYYSLASGWYYYWGQGTQVTVSS” it is “high polyreactivity”.
The entry for “QVQLVESGGGLVQAGGSLRLSCAASGSTFVWYAMGWYRQAPGKEREFVATISWSGDSTYYADSVKGRFTISRDNAKNTVYLQMNSLKPEDTAVYYCATAVYLVIFEYDYWGQGSQVTVSS” is “low polyreactivity”.
“QVQLVESGGGLVQAGGSLRLSCAASGSTFVWYGMGWYRQAPGKEREFVAAISTSGGRTYYADSVKGRFTISRDNAKNTVYLQMNSLKPEDTAVYYCATRPYFTYRWYDYWGQGTQVTVSS”: the “polyreactivity (PSR sort gate)” value was “high polyreactivity”.
Consider “QVQLVESGGGLVQAGGSLRLSCAASGSTFVYNAMGWYRQAPGKERELVAAISRRGGSTYYADSVKGRFTISRDNAKNTVYLQMNSLKPEDTAVYYCATDRVQDSYYWGQGTQVTVSS”, for which the “polyreactivity (PSR sort gate)” value is listed as “high polyreactivity”.
The entry for “QVQLVESGGGLVQAGGSLRLSCAASGSTFVYNAMGWYRQAPGKERELVAAISTGGSTYYADSVKGRFTISRDNAKNTVYLQMNSLKPEDNAVYYCAAKQRTTLYDYWGQGTQVTVSS” is “high polyreactivity”; for “QVQLVESGGGLVQAGGSLRLSCAASGSTFVYNTMGWYRQAPGKERELVASISSDGNTYYADSVKGRFTISRDNAKNTVYLQMNSLKPEDTAVYYCAARYYYDWRFVGYDYWGQGTQVTVSS” it is “low polyreactivity”.
In the case of “QVQLVESGGGLVQAGGSLRLSCAASGSTFVYYAMGWSRQAPGKERELVAAIKRSGTRTYYADSVKGRFTISRDNAKNTVYLQMNSLKPEDTAVYYCANAVQGKYGYWGQGTQVTVSS”, the “polyreactivity (PSR sort gate)” value is reported as “high polyreactivity”.
The same measure for “QVQLVESGGGLVQAGGSLRLSCAASGSTFVYYAMGWYRQAPGKERELVAAISTSAGSTYYADSVKGRFTISRDNAKNTVYLQMNSLKPEDTAVYYCAASRKRRRYGSISGGYWGQGTQVTVSS”: “high polyreactivity”; for “QVQLVESGGGLVQAGGSLRLSCAASGSTFVYYAMGWYRQAPGKERELVAAITGSVDSTYYADSVKGRFTISRDNAKNTVYLQMNSLNPEDTAVYYCAAVTYSTYWGQGTQVTVSS”: “low polyreactivity”.
The same measure for “QVQLVESGGGLVQAGGSLRLSCAASGSTFVYYAMGWYRQAPGKERELVAAITSGDSTYYADSVKGRFTISRDNAKNTVYLQMNSLKPEDTAVYYCAKRGGYKWIYGYWGQGTQVTVSS”: “low polyreactivity”; for “QVQLVESGGGLVQAGGSLRLSCAASGSTFVYYAMGWYRQAPGKETEFVAAISISSGSTYYADSVKGRFTISRDNAKNTVYLQMNSLKPEDTAVYYCAVDWFLGGYDDLDYWGQGTQVTVSS”: “low polyreactivity”; for “QVQLVESGGGLVQAGGSLRLSCAASGSTFWANALGWYRQAPGKERELVAGITWNAGSTYYADSVKGRFTISRDNAKNTVYLQMNSLKPEDTGVYYCAAYYHFQGWGPGYNSWGQGTQVTVSS”: “low polyreactivity”.
The same measure for “QVQLVESGGGLVQAGGSLRLSCAASGSTFWANAMGWYRQAPGKEREIVATISWSDGSTYYAASVKGRFTISRDNAKNTVYLQRNSLNPEDTAVYYCASDVVRFFTYKYDDWGQGTQVTVSS”: “low polyreactivity”; for “QVQLVESGGGLVQAGGSLRLSCAASGSTFWANAMGWYRQAPGKERELVAAITTSGASTYYADSVKGRFTISRDNAKNTVYLQMNSLKPEDTAVYYCAADYDSYYWYNYWGQGTQVTVSS”: “low polyreactivity”; for “QVQLVESGGGLVQAGGSLRLSCAASGSTFWEYAMGWYRQGPGTERELVAAISSSGGSTYYADSVKGRFTISRDNAKNTVYLQMNSLKPEDTAVYYCAARYSWRRAGYYYWGQGTQVTVSS”: “high polyreactivity”.

Values taken from the nanobody polyreactivity screen of Harvey et al. (2022).
